The sequences below were run on MS2 coat protein (assay: apparent KD of MS2 coat protein; higher = weaker reporter binding). Conditions: Eterna round: R107; input ligand: arginine 13.2 mM.
Outline: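 Binding of SNAP-549-labelled MS2 coat protein was measured on designed RNA switches transcribed on-chip from Illumina sequencing clusters. The protein rose in twofold steps from 0.7 or 1.5 nM to 3 µM, with 0.8–1.5 h per step early on and 10–20 min per step later, in 100 mM Tris-HCl pH 7.5, 80 mM KCl, 4 mM MgCl2, without or with constant ligand. Each design's apparent KD is the median of fits to its normalised cluster binding curves.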

Sequence	apparent KD of MS2 coat protein [nM]
GCUGUACCAUGAAGGAGCGUCACGGAGUGCGAAUACACAUGAGGAUCACCCAUGUUUUUAUGGCAGGUAGGUCGCAUGGUACAGC [#02 Same State - Arginine B]	22.8
ACAUGAGGAUCACCCAUGUAAUAAUCAGAAGGAGCGUGGAAUAACACAGGUAGGUCGCUGAUGUUUGGUUAAAUGUAAUCGUGUA [JR_SSArginiA_Sub001]	13
GGUCUCGAGAGCGAUACCAGCUUGAUCGUACUGGCCUGGUACAUGAGGAUCACCCAUGUAAGCCCUUGGCAGCGCUCUCGAGACC [#1 Exclusion - Theophylline B Attempt #7 (HarryS)]	9.53
AGAUUCGACACGGCCGCCACUCGAGACGGAUUUCCGAGUGUCGAACAUGAGGAUCACCCAUGUCCGAGGACCGGGUGUUGAGUCU [XTryp B #10]	24.3
AGUUCCAGGUCGGCCGCCACUGGCAUGGCCGGUCCUCGGACUUACAUGAGGAUCACCCAUGUGAACAGGACCGGGACCGCAUGGG [Exclusion Tryptophan B GF 24]	26.1
AAUAAGUAUCUGCUAGGUGAUCCAGCAGAUACCAGCUAGGAAACUAGCCCUUGGCAGCUGCAACAUGAGGAUCACCCAUGUAAUA [(T)'-(M)'-(T1)-(T2)-(M1)-(M2)_Design3]	98.7
UUAAUCAGGUUAGAAAACUAAUUUGCAGAAGGAGCGUGAUAAAACACAGGUAGGUCGCUGAAGGGAACAUGAGGAUCACCCAUGU [AstrosSSArgA#10]	22.9
GGAUAGGACACGGCCGCCACUAGCUAGGAUACUAGCAACAUUUCCUCACUUGAGGAUCACCCAGGUAGGACCGGGUGUCCUAUCG	143
AAAUAAACCUCGGCCGCCACUCGCCAUGAGGAUCACCCAUGUAACAUGAGGAUCACCCAUGUACAGAGGACCGGGAGGUCCUAGU [Same State Tryptophan B GF 13]	48.3
UGGUUUCGGUCAAUCACCGGUCCCUGGGAAGGAGCGGACUCAUGUCCAGGUAGGUCGCCCAGACAUGAGGAUCACCCAUGUGACA [Tiusdiin]	32.5
UGUAUGUGAUUUGAUACCAGACCAGCUGGUGGUACUUGAGGAACACCCAAGUAGGUUUGGGUCCCUUGGCAGCAAAUCGCAUACU [SS Theo B #24 Ms11]	110
AUACAUGAGGAUCACCCAUGUGAUGGCCGGCGAGGACCGGUACGGCCGCCACUCGUGAUCCGUCCUGAAAGCAAAGCUUCCAGCA [Terion]	37.4
AAAAUCCUACUUGAGGAUCACCCAGGUGAAGGAGCGCCCGAAAGGGCAGGUAGGUCGCACCUGAGGAUCACCCUGGUAACCUAAA [ArgEX 9 #DoubleMS2 #OpenEnded]	140
CCCAGUCAUAGCAGGGCAAAUAUACUCGAAGGAGCGUCAUAGUAGGCAGGUAGGUCGCGAGACAUGAGGAUCACCCAUGUAGAGA [cccmullin]	33.6
AGCCCUGUACUAGAUACCAGCUACAUGAGGAUCACCCAUGUGCGUCAAGACUGACUGUGUGGCCCUUGGCAGCUGCUCGCAUGUA [Exclusion - Theophylline B (Freestyle 1)]	50.6
CGUACAUGAGGAUCACCCAUGUAGAGUGAUACCAGUCUACCUAGUGACCCUUGGCAGCACAUCGAUGGCAUCGGUGAUGCCGUUU [Atveti]	70.1
ACAUGAAGAACAGCGGUGGGCGCGCUCGAUACCAGUAUUUUAAAUUACCCUUGGCAGCGACAUGAGGAUCACCCAUGUGAGAUGA [XTheo A #5]	22.5
GGAUAGGACACGGCCGCCACUAGCUAGGAUACUAGCAACAUUUCCUCAGAUGAGGAUCACCCAUCUAGGACCGGGUGUCCUAUCG	25.7
UGUAUGUGAUCUGAUACCAGUCCAACUGGUAAAAGAUGAGGAUCACCCAUCUAAAAUUGGGACCCUUGGCAGCAGAUCGCAUACU	91.7
UUAUUUAUAUUAGAUACCAGUUUAAUGGCCGCAAAUCCUGACAUGAGGAUCACCCAUGUAAGCCCUUGGCAGCUGGUAUGGGUUU [XTheo B #26]	25.2
GGGUGCGGCACGGCCGCCACUGCGGUGGUGUGACAUGAGGAUCACCCAUGUUGUCAUGCGGCCCUUAGGACCGGGUGCCGUGCCC [#1 Exclusion - Tryptophan B Attempt #13 (HarryS)]	39.5
UAUAGUACCAGACAUGAGGAUCACCCAUGUCGAGGACCGGUACGGCCGCCACUCGGCAGUUUGCGUCCUCAGGUACUCCGGGUCA [Larisotexe]	17.6
AUUUGGCGUAGUGUUGCUCGUGGGAUAAAACGAGGACCGGUACGGCCGCCACUCGAUGAUUAACAUGAGGAUCACCCAUGUAAAU [theeternabot_exclusion_MS2_Trp_A_22]	17.5
AUAACAUGAGGAUCACCCAUGUAAGCUGAAGGAGCGCUGGAAACAGCAGGUAGGUCGCAGCGGCGACCUUCCUCAUGAAGGUCGC [(M1)-(M2)-(Arg1)-(Arg2)-(A)'-(M)'-(A)''_Design5]	19.2
UUGGGUUUGCGAAGGAGCGGGAAAUAUAUAUAUAUAAUCCUAACAUGAGGAUCACCCAUGUCCCAGGUAGGUCGCGCAGGUUUGG [12.L]	58.1
CCCAGUCAUAACAAAGCAAAUAUACUCGAAGGAGCGUCAUAGUAGGCAGGUAGGUCGCGAGACAUGAGGAUCACCCAUGUAGAGA [zrzmullin]	20.1
ACAUGAGGAUCACCCAUGUAUGACUAUCCUCGAGGACCGGUACGGCCGCCACUCGAACGAGUGGCUCGCGAGUGCGCACUCGCGA [5' end]	11.7
GGGCCCGGGCCGGAAACGGCCCGGGCCCUGCGAGGACCGGUACGGCCGCCACUCGCUCGAGUGGGUACAUGAGGAUCACCCAUGU [#17 Exclusion Tryptophan A]	17.7
GGACCAGGGAGCGAUACCAGCUUGAGUGUGCUGGCCAGGCACAUGAGGAUCACCCAUGUAGGCCCUUGGCAGCGCUCCCUGGUCC [#1 Exclusion - Theophylline B Attempt #28 (HarryS)]	9.06
AAUACCGGUCCUCGAGGGUGAUCCUCAUGACGAGGACCGGUACGGCCGCCACUCGAUAACAUGAGGAUCACCCAUGUAAUCGAGU [|T'-M'-Trp-Ms2|_Design7b]	34.1

Same assay, conditions: Eterna round: R107; input ligand: none

Sequence	apparent KD of MS2 coat protein [nM]
GCUGUACCAUGAAGGAGCGUCACGGAGUGCGAAUACACAUGAGGAUCACCCAUGUUUUUAUGGCAGGUAGGUCGCAUGGUACAGC [#02 Same State - Arginine B]	22.3
ACAUGAGGAUCACCCAUGUAAUAAUCAGAAGGAGCGUGGAAUAACACAGGUAGGUCGCUGAUGUUUGGUUAAAUGUAAUCGUGUA [JR_SSArginiA_Sub001]	13.5
GGUCUCGAGAGCGAUACCAGCUUGAUCGUACUGGCCUGGUACAUGAGGAUCACCCAUGUAAGCCCUUGGCAGCGCUCUCGAGACC [#1 Exclusion - Theophylline B Attempt #7 (HarryS)]	11.4
UUAAUCAGGUUAGAAAACUAAUUUGCAGAAGGAGCGUGAUAAAACACAGGUAGGUCGCUGAAGGGAACAUGAGGAUCACCCAUGU [AstrosSSArgA#10]	26.3
GGAUAGGACACGGCCGCCACUAGCUAGGAUACUAGCAACAUUUCCUCACUUGAGGAUCACCCAGGUAGGACCGGGUGUCCUAUCG	580
UGGUUUCGGUCAAUCACCGGUCCCUGGGAAGGAGCGGACUCAUGUCCAGGUAGGUCGCCCAGACAUGAGGAUCACCCAUGUGACA [Tiusdiin]	174
AAAAUCCUACUUGAGGAUCACCCAGGUGAAGGAGCGCCCGAAAGGGCAGGUAGGUCGCACCUGAGGAUCACCCUGGUAACCUAAA [ArgEX 9 #DoubleMS2 #OpenEnded]	164
CCCAGUCAUAGCAGGGCAAAUAUACUCGAAGGAGCGUCAUAGUAGGCAGGUAGGUCGCGAGACAUGAGGAUCACCCAUGUAGAGA [cccmullin]	52.3
ACAUGAAGAACAGCGGUGGGCGCGCUCGAUACCAGUAUUUUAAAUUACCCUUGGCAGCGACAUGAGGAUCACCCAUGUGAGAUGA [XTheo A #5]	18.1
GGAUAGGACACGGCCGCCACUAGCUAGGAUACUAGCAACAUUUCCUCAGAUGAGGAUCACCCAUCUAGGACCGGGUGUCCUAUCG	26
UGUAUGUGAUCUGAUACCAGUCCAACUGGUAAAAGAUGAGGAUCACCCAUCUAAAAUUGGGACCCUUGGCAGCAGAUCGCAUACU	264
GGGUGCGGCACGGCCGCCACUGCGGUGGUGUGACAUGAGGAUCACCCAUGUUGUCAUGCGGCCCUUAGGACCGGGUGCCGUGCCC [#1 Exclusion - Tryptophan B Attempt #13 (HarryS)]	33.7
AUAACAUGAGGAUCACCCAUGUAAGCUGAAGGAGCGCUGGAAACAGCAGGUAGGUCGCAGCGGCGACCUUCCUCAUGAAGGUCGC [(M1)-(M2)-(Arg1)-(Arg2)-(A)'-(M)'-(A)''_Design5]	14.2
UUGGGUUUGCGAAGGAGCGGGAAAUAUAUAUAUAUAAUCCUAACAUGAGGAUCACCCAUGUCCCAGGUAGGUCGCGCAGGUUUGG [12.L]	54.2
CCCAGUCAUAACAAAGCAAAUAUACUCGAAGGAGCGUCAUAGUAGGCAGGUAGGUCGCGAGACAUGAGGAUCACCCAUGUAGAGA [zrzmullin]	31.8
ACAUGAGGAUCACCCAUGUAUGACUAUCCUCGAGGACCGGUACGGCCGCCACUCGAACGAGUGGCUCGCGAGUGCGCACUCGCGA [5' end]	13.3
GGGCCCGGGCCGGAAACGGCCCGGGCCCUGCGAGGACCGGUACGGCCGCCACUCGCUCGAGUGGGUACAUGAGGAUCACCCAUGU [#17 Exclusion Tryptophan A]	28.4
GGACCAGGGAGCGAUACCAGCUUGAGUGUGCUGGCCAGGCACAUGAGGAUCACCCAUGUAGGCCCUUGGCAGCGCUCCCUGGUCC [#1 Exclusion - Theophylline B Attempt #28 (HarryS)]	9.45

Same assay, conditions: Eterna round: R107; input ligand: theophylline 20 uM

Sequence	apparent KD of MS2 coat protein [nM]
GCUGUACCAUGAAGGAGCGUCACGGAGUGCGAAUACACAUGAGGAUCACCCAUGUUUUUAUGGCAGGUAGGUCGCAUGGUACAGC [#02 Same State - Arginine B]	33.3
ACAUGAGGAUCACCCAUGUAAUAAUCAGAAGGAGCGUGGAAUAACACAGGUAGGUCGCUGAUGUUUGGUUAAAUGUAAUCGUGUA [JR_SSArginiA_Sub001]	18.1
GGUCUCGAGAGCGAUACCAGCUUGAUCGUACUGGCCUGGUACAUGAGGAUCACCCAUGUAAGCCCUUGGCAGCGCUCUCGAGACC [#1 Exclusion - Theophylline B Attempt #7 (HarryS)]	15.6
AGAUUCGACACGGCCGCCACUCGAGACGGAUUUCCGAGUGUCGAACAUGAGGAUCACCCAUGUCCGAGGACCGGGUGUUGAGUCU [XTryp B #10]	42.8
AGUUCCAGGUCGGCCGCCACUGGCAUGGCCGGUCCUCGGACUUACAUGAGGAUCACCCAUGUGAACAGGACCGGGACCGCAUGGG [Exclusion Tryptophan B GF 24]	46.1
AAUAAGUAUCUGCUAGGUGAUCCAGCAGAUACCAGCUAGGAAACUAGCCCUUGGCAGCUGCAACAUGAGGAUCACCCAUGUAAUA [(T)'-(M)'-(T1)-(T2)-(M1)-(M2)_Design3]	193
UUAAUCAGGUUAGAAAACUAAUUUGCAGAAGGAGCGUGAUAAAACACAGGUAGGUCGCUGAAGGGAACAUGAGGAUCACCCAUGU [AstrosSSArgA#10]	32.7
GGAUAGGACACGGCCGCCACUAGCUAGGAUACUAGCAACAUUUCCUCACUUGAGGAUCACCCAGGUAGGACCGGGUGUCCUAUCG	577
AAAUAAACCUCGGCCGCCACUCGCCAUGAGGAUCACCCAUGUAACAUGAGGAUCACCCAUGUACAGAGGACCGGGAGGUCCUAGU [Same State Tryptophan B GF 13]	68.9
UGGUUUCGGUCAAUCACCGGUCCCUGGGAAGGAGCGGACUCAUGUCCAGGUAGGUCGCCCAGACAUGAGGAUCACCCAUGUGACA [Tiusdiin]	409
UGUAUGUGAUUUGAUACCAGACCAGCUGGUGGUACUUGAGGAACACCCAAGUAGGUUUGGGUCCCUUGGCAGCAAAUCGCAUACU [SS Theo B #24 Ms11]	160
AUACAUGAGGAUCACCCAUGUGAUGGCCGGCGAGGACCGGUACGGCCGCCACUCGUGAUCCGUCCUGAAAGCAAAGCUUCCAGCA [Terion]	273
AAAAUCCUACUUGAGGAUCACCCAGGUGAAGGAGCGCCCGAAAGGGCAGGUAGGUCGCACCUGAGGAUCACCCUGGUAACCUAAA [ArgEX 9 #DoubleMS2 #OpenEnded]	171
CCCAGUCAUAGCAGGGCAAAUAUACUCGAAGGAGCGUCAUAGUAGGCAGGUAGGUCGCGAGACAUGAGGAUCACCCAUGUAGAGA [cccmullin]	67
AGCCCUGUACUAGAUACCAGCUACAUGAGGAUCACCCAUGUGCGUCAAGACUGACUGUGUGGCCCUUGGCAGCUGCUCGCAUGUA [Exclusion - Theophylline B (Freestyle 1)]	191

Source: the supplement of paper PMC9170038
